± gives the standard deviation of the averaged measurements.
Each sequence was assayed on Saccharomyces cerevisiae (assay: protein stability index of tFT-peptide fusion (C-terminal peptide) (PSI (0-1 scale)); higher = more stable (slower turnover)). Conditions: genetic background: wild type; temperature: 30 C.
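Also: PSI is a weighted mean of sequencing reads over stability bins, variants kept only with over 10 reads, mCherry proximal and sfGFP distal, peptide attached via GGGS linker.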

TKKNDKIRIQKS and TKSWSLNGTYLL are within error of each other in protein stability index: 0.741 ± 0.043 for the first, 0.703 ± 0.034 for the second.

TKTKKKKNKKQE and TKTNKALKTSKI are within error of each other in protein stability index: 0.719 ± 0.067 for the first, 0.699 ± 0.061 for the second.

TLARLISGKRLL and TLEGRQKEMGIA are within error of each other in protein stability index: 0.648 ± 0.022 for the first, 0.691 ± 0.037 for the second.

TLEHRHPAIHPE and TLGKPVGLARLS are within error of each other in protein stability index: 0.723 ± 0.046 for the first, 0.692 ± 0.035 for the second.

Going from TLKMKHKPKKNL to TLLLLLPPLPSF, the protein stability index falls from 0.6583 ± 0.0035 to 0.598 ± 0.023.

Compared with TLSPPPLSPSAP, TLVLQFGRKRFG is lower in protein stability index: 0.711 ± 0.013 for the first, 0.629 ± 0.013 for the second.

Going from TLWLVSTAVLDC to TNCNSHKLMAAL, the protein stability index rises from 0.534 ± 0.036 to 0.679 ± 0.011.

TNGYWVIACKKF and TNTPSYSSRAEF are within error of each other in protein stability index: 0.672 ± 0.069 for the first, 0.733 ± 0.11 for the second.

TPGGPLLHSGFL and TPGLVRVGSVSF are within error of each other in protein stability index: 0.755 ± 0.085 for the first, 0.708 ± 0.017 for the second.

First: TPLSSPHPSPPP
Second: TPMEKRQDANIN
The protein stability index of the first is lower: 0.595 ± 0.045 for the first, 0.691 ± 0.015 for the second.

TPMPSCNHRPED and TPPHNRERPTVQ are within error of each other in protein stability index: 0.655 ± 0.03 for the first, 0.657 ± 0.03 for the second.

TPPIPTTTSNFS and TPPPASALPPSP are within error of each other in protein stability index: 0.734 ± 0.052 for the first, 0.705 ± 0.014 for the second.

TPPPRSFHRFPC and TPPSPHPCPSPL are within error of each other in protein stability index: 0.694 ± 0.043 for the first, 0.797 ± 0.064 for the second.

TPPVPVPPPQLL and TPTPGCYIASLT are within error of each other in protein stability index: 0.748 ± 0.044 for the first, 0.759 ± 0.21 for the second.

TQHKANQGLELI and TQKESEKLNMSK are within error of each other in protein stability index: 0.663 ± 0.008 for the first, 0.667 ± 0.064 for the second.

TQNRCGGPSIAL and TQRIEKEPTKKY are within error of each other in protein stability index: 0.634 ± 0.03 for the first, 0.703 ± 0.04 for the second.

Going from TRCKLALEKLVG to TRGMDYWLFTGD, the protein stability index rises from 0.5986 ± 0.0015 to 0.706 ± 0.0031.

TRGPKYTMVVKR and TRKESNTIHNEQ are within error of each other in protein stability index: 0.672 ± 0.017 for the first, 0.688 ± 0.014 for the second.

TRRGAAAEDQEK and TRRVPNSRTGTI are within error of each other in protein stability index: 0.697 ± 0.065 for the first, 0.74 ± 0.072 for the second.

TRSLPSSSSHSL and TRTCGRRRAGGR are within error of each other in protein stability index: 0.727 ± 0.011 for the first, 0.633 ± 0.1 for the second.

First: TRTRARAIQTAT
Second: TRWRPPCAPSGS
The protein stability index of the first is lower: 0.6462 ± 0.0054 for the first, 0.742 ± 0.076 for the second.

TSAPDSPVPSLP and TSGAQSTRLGRE are within error of each other in protein stability index: 0.695 ± 0.015 for the first, 0.778 ± 0.11 for the second.

TSIAKRNGLLPG and TSIDIEWYNSLM are within error of each other in protein stability index: 0.719 ± 0.13 for the first, 0.589 ± 0.026 for the second.

First: TSIREVPAPCSH
Second: TSKYQENKQKKR
The protein stability index of the first is higher: 0.756 ± 0.032 for the first, 0.7095 ± 0.0057 for the second.

TSLIPPASPFAW and TSPPSLLFAMAR are within error of each other in protein stability index: 0.643 ± 0.11 for the first, 0.693 ± 0.038 for the second.

TSPTPPPTPCRS and TSRPLHEQTVSP are within error of each other in protein stability index: 0.6927 ± 0.0067 for the first, 0.677 ± 0.025 for the second.

TSRTLKPGIPPA and TSSPVFPFPPTP are within error of each other in protein stability index: 0.7033 ± 0.0013 for the first, 0.745 ± 0.042 for the second.

Compared with TSSSDCRSPAPP, TSTDLKKTNLQN is lower in protein stability index: 0.744 ± 0.038 for the first, 0.645 ± 0.021 for the second.

TSTRTPTHRGPL and TSYFRRRRSHSH are within error of each other in protein stability index: 0.762 ± 0.014 for the first, 0.753 ± 0.01 for the second.

TTCKTPPTYSFP and TTCLYYDLQIPM are within error of each other in protein stability index: 0.71 ± 0.033 for the first, 0.672 ± 0.015 for the second.

TTIVGRIMRVMR and TTKKKKGKKKYH are within error of each other in protein stability index: 0.706 ± 0.012 for the first, 0.681 ± 0.048 for the second.

TTQEPTPLAQEQ and TTVAIPSINRYS are within error of each other in protein stability index: 0.713 ± 0.024 for the first, 0.671 ± 0.051 for the second.

TTWSPWLGVAET and TVCGTLISFVEG are within error of each other in protein stability index: 0.752 ± 0.07 for the first, 0.694 ± 0.028 for the second.

TVERLGSRRGMA and TVIWNSLRNCKF are within error of each other in protein stability index: 0.712 ± 0.022 for the first, 0.819 ± 0.15 for the second.

First: TVPFGLPVRPSP
Second: TVPRSPPSPPLT
The protein stability index of the first is higher: 0.7464 ± 0.004 for the first, 0.7 ± 0.021 for the second.

TVSGPKTNLGQA and TVYRQRRDAPTR are within error of each other in protein stability index: 0.71 ± 0.14 for the first, 0.727 ± 0.022 for the second.

TWANKRIGRRKE and TWKARFFMDLGN are within error of each other in protein stability index: 0.778 ± 0.039 for the first, 0.672 ± 0.12 for the second.

TWVPYIIMKRER and TYANKVKVHCGI are within error of each other in protein stability index: 0.669 ± 0.019 for the first, 0.651 ± 0.059 for the second.

First: VAAFGGGPTNGV
Second: VAAGGTVSPSSQ
The protein stability index of the first is higher: 0.724 ± 0.013 for the first, 0.653 ± 0.057 for the second.

VAAKAHPLASMS and VACFASRVLCRG are within error of each other in protein stability index: 0.617 ± 0.11 for the first, 0.503 ± 0.024 for the second.

VAGRGLGCPGRI and VAGSGAGREAAY are within error of each other in protein stability index: 0.632 ± 0.018 for the first, 0.651 ± 0.0067 for the second.

VAGVLVFGKVGG and VALFPVSFFSWL are within error of each other in protein stability index: 0.694 ± 0.043 for the first, 0.643 ± 0.098 for the second.

First: VALVCFAAGWLW
Second: VASSGRSPTPTR
The protein stability index of the first is lower: 0.507 ± 0.037 for the first, 0.7551 ± 0.0015 for the second.

Going from VAWAQPSGSKAC to VCAAWKCRLDAG, the protein stability index falls from 0.697 ± 0.046 to 0.624 ± 0.0043.

VCAGGVFRLARG and VCDIRSFALWYA are within error of each other in protein stability index: 0.66 ± 0.12 for the first, 0.8 ± 0.024 for the second.

VCGECGWRRVCL and VCGGLGCSVVLE are within error of each other in protein stability index: 0.734 ± 0.028 for the first, 0.721 ± 0.078 for the second.

Going from VCGGRQGGWGGW to VCGRTHRVLPTY, the protein stability index falls from 0.693 ± 0.0098 to 0.641 ± 0.015.

VCIAKCKYNKTS and VCLGAWGEGGRG are within error of each other in protein stability index: 0.606 ± 0.015 for the first, 0.664 ± 0.071 for the second.

VCMSLVRGEAGG and VCNFCFLPASLV are within error of each other in protein stability index: 0.657 ± 0.011 for the first, 0.636 ± 0.021 for the second.

VCPPIVSSSWIL and VCPVIGGGGVGV are within error of each other in protein stability index: 0.687 ± 0.035 for the first, 0.695 ± 0.0077 for the second.

VCRGFRHQCWYG and VCRLLASCFWRL are within error of each other in protein stability index: 0.665 ± 0.013 for the first, 0.655 ± 0.035 for the second.

VCSLALSRPSTG and VCTGYIAGGPVC are within error of each other in protein stability index: 0.6564 ± 0.0018 for the first, 0.659 ± 0.05 for the second.

VCTPCEFIRTQG and VCVFFLFGYFRL are within error of each other in protein stability index: 0.697 ± 0.036 for the first, 0.562 ± 0.22 for the second.

VCVLGGVWGCRG and VCVSRGPGTSDA are within error of each other in protein stability index: 0.66 ± 0.072 for the first, 0.685 ± 0.02 for the second.

VCWHSNCVGARH and VDGLQYFMYISG are within error of each other in protein stability index: 0.652 ± 0.01 for the first, 0.68 ± 0.073 for the second.

Going from VDGLSGVRPRGL to VDLARWPVPEFW, the protein stability index rises from 0.69 ± 0.033 to 0.834 ± 0.022.

First: VDRAPFHLGRQG
Second: VEDGGSREAGEA
The protein stability index of the first is higher: 0.712 ± 0.043 for the first, 0.627 ± 0.0073 for the second.

Compared with VEERGCCGEAEG, VEGISKMTRINP is higher in protein stability index: 0.72671 ± 0.00023 for the first, 0.8698 ± 0.0057 for the second.

VEGNLIYKKKYK and VEHILQGVKYRR are within error of each other in protein stability index: 0.656 ± 0.053 for the first, 0.717 ± 0.098 for the second.

VESRVVGGGGDW and VEVKEKLKLWSH are within error of each other in protein stability index: 0.683 ± 0.047 for the first, 0.691 ± 0.021 for the second.

First: VFAHCSRHRGST
Second: VFDCLCGLRPGF
The protein stability index of the first is higher: 0.7103 ± 0.0029 for the first, 0.632 ± 0.026 for the second.

VFDGSVSWARHD and VFGFLGSLASCR are within error of each other in protein stability index: 0.6529 ± 0.0053 for the first, 0.853 ± 0.2 for the second.

VFHLATSVRRRY and VFLLSDVCGLGL are within error of each other in protein stability index: 0.672 ± 0.051 for the first, 0.583 ± 0.2 for the second.

First: VFLVDCFGVCFL
Second: VFMWRIRRRLVR
The protein stability index of the first is higher: 0.784 ± 0.048 for the first, 0.598 ± 0.02 for the second.

Going from VFPPLSRLLPGP to VFTGVGFVPLVC, the protein stability index falls from 0.699 ± 0.1 to 0.5757 ± 0.0034.

First: VGAGRGKWRGGG
Second: VGAGVAGGASVS
The protein stability index of the first is higher: 0.6591 ± 0.0013 for the first, 0.613 ± 0.027 for the second.

VGAIGYWCPEWR and VGAPPCYPVSRL are within error of each other in protein stability index: 0.651 ± 0.019 for the first, 0.74 ± 0.24 for the second.

VGCPGGVWVFRG and VGCTSFWLAILR are within error of each other in protein stability index: 0.535 ± 0.011 for the first, 0.56 ± 0.026 for the second.

Going from VGDGLGWGGQGG to VGEIMREVKGPD, the protein stability index rises from 0.678 ± 0.03 to 0.72 ± 0.0079.

Going from VGFDFLFRFFFL to VGFFGMGVLPEG, the protein stability index rises from 0.628 ± 0.037 to 0.741 ± 0.013.

VGFSLGGFLFLF and VGGCLFQLSSGY are within error of each other in protein stability index: 0.585 ± 0.096 for the first, 0.683 ± 0.035 for the second.

Compared with VGGGASGVGRSG, VGGGGERGRGGS is higher in protein stability index: 0.63009 ± 0.00033 for the first, 0.687 ± 0.01 for the second.

Compared with VGGGRAALRWYG, VGGGRFCGCLVV is higher in protein stability index: 0.673 ± 0.018 for the first, 0.767 ± 0.015 for the second.

Compared with VGGGRRGGVGEG, VGGRAAIGRGGW is higher in protein stability index: 0.652 ± 0.021 for the first, 0.706 ± 0.012 for the second.

VGGRLLFVGKRG and VGGRMGVDEGKG are the same in protein stability index: 0.669 ± 0.051 for the first, 0.669 ± 0.02 for the second.

VGGRRCVCVWWL and VGHGGRRGVGGW are within error of each other in protein stability index: 0.674 ± 0.016 for the first, 0.612 ± 0.057 for the second.

VGICCCKTYCCS and VGIFSLLRCRGE are within error of each other in protein stability index: 0.656 ± 0.074 for the first, 0.701 ± 0.035 for the second.

VGIQQSVVVRLE and VGKHNLYSKNWR are within error of each other in protein stability index: 0.6685 ± 0.0034 for the first, 0.66 ± 0.016 for the second.

Compared with VGKSNKYEETHK, VGLGAGGTSLMR is lower in protein stability index: 0.747 ± 0.06 for the first, 0.571 for the second.

VGLGEGGGVGEG and VGLLQRSLAFVL are within error of each other in protein stability index: 0.678 ± 0.079 for the first, 0.612 ± 0.031 for the second.
